This assay deals with human β2GPI-dependent antiphospholipid antibody. In words: Micropanning of mutant domain 1 phage, patient antibodies. Type of assay: binding. Conditions: Table 7B.

Micropan score data for one molecule are collected here from patent US6858210B1, “Therapeutic and diagnostic domain 1 β2GPI polypeptides and methods of using same” (La Jolla Pharmaceutical Co., priority 1998, dated 2005).

B1: 3F8: phage clone, domain 1 mutant T50A (protein)
chain: GRTCPKPDDLPFSTVVPLKTFYEPGEEITYSCKPGYVSRGGMRKFICPLAGLWPINTLKCTPRV
Regarding B1, the Micropan score worked out at 2 (antibody 6226); 2 (antibody 6501); 2 (antibody 6632); 3 (antibody 6644); 2 (antibody 6701); 3 (antibody 7008).
